Experimental data published in doi:10.1101/2022.10.27.514150.

Target: Gluc1-E2F4 (human), Q16254
Assay: split reporter
Conditions: remark: other sources report otherwise

Chain of Gluc1-E2F4 (human), Q16254 (Q16254 whole entry): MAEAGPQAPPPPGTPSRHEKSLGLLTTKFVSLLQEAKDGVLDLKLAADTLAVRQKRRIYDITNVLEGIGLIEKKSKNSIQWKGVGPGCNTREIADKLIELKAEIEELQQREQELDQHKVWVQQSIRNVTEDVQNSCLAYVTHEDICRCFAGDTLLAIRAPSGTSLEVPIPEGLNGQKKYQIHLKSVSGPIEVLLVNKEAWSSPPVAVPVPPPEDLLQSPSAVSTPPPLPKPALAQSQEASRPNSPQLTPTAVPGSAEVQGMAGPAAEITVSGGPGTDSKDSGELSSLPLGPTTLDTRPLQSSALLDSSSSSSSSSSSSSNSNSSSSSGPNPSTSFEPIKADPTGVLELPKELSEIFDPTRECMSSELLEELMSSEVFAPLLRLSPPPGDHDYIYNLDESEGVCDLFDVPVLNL

normalized luminescence ratio (NLR): > 40
B1: Gluc2-p130, Q08999 1-1139 (natural protein)
chain: MPSGGDQSPPPPPPPPAAAASDEEEEDDGEAEDAAPPAESPTPQIQQRFDELCSRLNMDEAARAEAWDSYRSMSESYTLEGNDLHWLACALYVACRKSVPTVSKGTVEGNYVSLTRILKCSEQSLIEFFNKMKKWEDMANLPPHFRERTERLERNFTVSAVIFKKYEPIFQDIFKYPQEEQPRQQRGRKQRRQPCTVSEIFHFCWVLFIYAKGNFPMISDDLVNSYHLLLCALDLVYGNALQCSNRKELVNPNFKGLSEDFHAKDSKPSSDPPCIIEKLCSLHDGLVLEAKGIKEHFWKPYIRKLYEKKLLKGKEENLTGFLEPGNFGESFKAINKAYEEYVLSVGNLDERIFLGEDAEEEIGTLSRCLNAGSGTETAERVQMKNILQQHFDKSKALRISTPLTGVRYIKENSPCVTPVSTATHSLSRLHTMLTGLRNAPSEKLEQILRTCSRDPTQAIANRLKEMFEIYSQHFQPDEDFSNCAKEIASKHFRFAEMLYYKVLESVIEQEQKRLGDMDLSGILEQDAFHRSLLACCLEVVTFSYKPPGNFPFITEIFDVPLYHFYKVIEVFIRAEDGLCREVVKHLNQIEEQILDHLAWKPESPLWEKIRDNENRVPTCEEVMPPQNLERADEICIAGSPLTPRRVTEVRADTGGLGRSITSPTTLYDRYSSPPASTTRRRLFVENDSPSDGGTPGRMPPQPLVNAVPVQNVSGETVSVTPVPGQTLVTMATATVTANNGQTVTIPVQGIANENGGITFFPVQVNVGGQAQAVTGSIQPLSAQALAGSLSSQQVTGTTLQVPGQVAIQQISPGGQQQKQGQSVTSSSNRPRKTSSLSLFFRKVYHLAAVRLRDLCAKLDISDELRKKIWTCFEFSIIQCPELMMDRHLDQLLMCAIYVMAKVTKEDKSFQNIMRCYRTQPQARSQVYRSVLIKGKRKRRNSGSSDSRSHQNSPTELNKDRTSRDSSPVMRSSSTLPVPQPSSAPPTPTRLTGANSDMEEEERGDLIQFYNNIYIKQIKTFAMKYSQANMDAPPLSPYPFVRTGSPRRIQLSQNHPVYISPHKNETMLSPREKIFYYFSNSPSKRLREINSMIRTGETPTKKRGILLEDGSESPAKRICPENHSALLRRLQDVANDRGSH
